pIC50: −log10 of the molar value.
What was measured:
[1] = molecular target: T1, Human macrophage mannose receptor 1 (MRC1) (human) (UniProt P22897); assay: competition with Eu-mannosylated-BSA on captured human MRC1, DELFIA
T1 sequence (looked up): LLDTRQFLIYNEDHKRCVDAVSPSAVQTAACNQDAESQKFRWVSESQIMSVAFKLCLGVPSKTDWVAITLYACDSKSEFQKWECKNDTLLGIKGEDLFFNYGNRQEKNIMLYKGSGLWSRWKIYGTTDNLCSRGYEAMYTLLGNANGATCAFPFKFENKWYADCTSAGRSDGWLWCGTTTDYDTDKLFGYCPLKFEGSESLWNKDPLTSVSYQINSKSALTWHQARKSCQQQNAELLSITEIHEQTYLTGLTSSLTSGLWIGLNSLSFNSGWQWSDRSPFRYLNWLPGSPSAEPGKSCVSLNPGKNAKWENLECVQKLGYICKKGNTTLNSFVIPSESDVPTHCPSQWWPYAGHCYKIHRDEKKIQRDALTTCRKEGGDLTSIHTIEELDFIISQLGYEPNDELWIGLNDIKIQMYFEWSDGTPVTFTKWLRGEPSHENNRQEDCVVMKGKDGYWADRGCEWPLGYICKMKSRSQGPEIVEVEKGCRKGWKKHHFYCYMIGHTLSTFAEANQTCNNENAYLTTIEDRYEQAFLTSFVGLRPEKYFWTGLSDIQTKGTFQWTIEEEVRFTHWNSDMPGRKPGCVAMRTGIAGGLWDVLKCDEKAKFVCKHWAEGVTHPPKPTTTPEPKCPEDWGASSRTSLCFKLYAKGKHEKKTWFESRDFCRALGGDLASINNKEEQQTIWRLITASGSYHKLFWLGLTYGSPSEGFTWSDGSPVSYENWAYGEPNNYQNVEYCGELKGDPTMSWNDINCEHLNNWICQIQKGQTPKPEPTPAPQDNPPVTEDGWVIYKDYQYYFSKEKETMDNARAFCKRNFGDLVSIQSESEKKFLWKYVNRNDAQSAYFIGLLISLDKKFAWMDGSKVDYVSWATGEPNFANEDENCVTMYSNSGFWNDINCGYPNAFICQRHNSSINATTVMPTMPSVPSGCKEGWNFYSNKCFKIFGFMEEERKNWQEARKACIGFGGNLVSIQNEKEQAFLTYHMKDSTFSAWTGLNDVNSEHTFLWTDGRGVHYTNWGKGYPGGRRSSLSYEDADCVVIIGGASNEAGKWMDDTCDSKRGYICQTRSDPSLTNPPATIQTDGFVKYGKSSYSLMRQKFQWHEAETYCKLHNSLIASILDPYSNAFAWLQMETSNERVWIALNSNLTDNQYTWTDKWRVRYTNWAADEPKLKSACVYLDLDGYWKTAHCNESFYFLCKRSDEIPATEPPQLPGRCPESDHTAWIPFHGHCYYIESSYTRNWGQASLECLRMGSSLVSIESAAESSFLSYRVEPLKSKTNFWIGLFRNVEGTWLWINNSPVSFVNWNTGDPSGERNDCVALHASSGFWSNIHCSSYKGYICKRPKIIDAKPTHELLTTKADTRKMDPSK

[2] = molecular target: human insulin receptor type B (IR(B)) (human) (UniProt P06213); assay: cell-based or functional assay
Chain of UniProt P06213 (P06213 28-1382): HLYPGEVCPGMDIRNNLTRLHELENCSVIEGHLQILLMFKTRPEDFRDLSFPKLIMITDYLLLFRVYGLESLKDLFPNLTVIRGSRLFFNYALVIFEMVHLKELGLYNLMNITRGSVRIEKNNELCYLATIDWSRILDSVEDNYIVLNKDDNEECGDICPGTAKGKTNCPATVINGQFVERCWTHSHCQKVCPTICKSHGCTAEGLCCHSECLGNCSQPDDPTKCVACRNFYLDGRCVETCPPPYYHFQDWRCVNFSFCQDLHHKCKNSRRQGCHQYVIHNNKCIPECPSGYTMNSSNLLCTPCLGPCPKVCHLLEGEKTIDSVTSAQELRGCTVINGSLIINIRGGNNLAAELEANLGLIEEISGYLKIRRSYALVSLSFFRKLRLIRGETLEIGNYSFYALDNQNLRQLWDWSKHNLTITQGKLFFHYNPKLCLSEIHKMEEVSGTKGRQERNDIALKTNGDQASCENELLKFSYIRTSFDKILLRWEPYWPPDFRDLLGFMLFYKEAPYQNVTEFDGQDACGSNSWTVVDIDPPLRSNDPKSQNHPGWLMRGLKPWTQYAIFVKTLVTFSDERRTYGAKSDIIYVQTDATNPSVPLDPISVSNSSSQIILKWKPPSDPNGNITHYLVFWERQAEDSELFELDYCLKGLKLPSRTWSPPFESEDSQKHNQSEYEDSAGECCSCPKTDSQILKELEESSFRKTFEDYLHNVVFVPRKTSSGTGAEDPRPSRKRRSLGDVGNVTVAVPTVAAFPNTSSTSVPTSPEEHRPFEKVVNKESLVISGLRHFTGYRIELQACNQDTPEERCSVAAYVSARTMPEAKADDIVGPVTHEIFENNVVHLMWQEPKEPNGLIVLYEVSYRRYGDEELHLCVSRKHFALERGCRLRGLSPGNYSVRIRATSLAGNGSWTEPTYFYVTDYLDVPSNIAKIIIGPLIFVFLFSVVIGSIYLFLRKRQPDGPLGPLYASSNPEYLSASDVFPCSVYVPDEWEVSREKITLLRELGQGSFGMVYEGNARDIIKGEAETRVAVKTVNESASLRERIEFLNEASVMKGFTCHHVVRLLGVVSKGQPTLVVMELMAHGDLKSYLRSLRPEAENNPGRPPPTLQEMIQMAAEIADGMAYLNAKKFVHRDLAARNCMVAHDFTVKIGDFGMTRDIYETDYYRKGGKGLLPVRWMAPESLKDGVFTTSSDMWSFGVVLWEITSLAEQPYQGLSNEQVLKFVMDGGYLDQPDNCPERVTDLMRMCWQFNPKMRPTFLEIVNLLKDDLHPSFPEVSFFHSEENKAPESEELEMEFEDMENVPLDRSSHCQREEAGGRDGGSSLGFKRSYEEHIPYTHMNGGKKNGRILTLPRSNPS

pIC50 [1]: 7.08 | Human pIR IC50 (nM) [2]: 6.36 nM
Substance: IOC-34 (Lispro) (ligand)
